Where two headings read alike, the source gives them in different places.

Experiment in all cases: other fluorescence titration
For experiment [1], the target named is T1, PTEN protein labeled with QSY 35 (UniProt P60484 1-403, QSY 35 (label as for the MKP proteins)).
Experiment [2] addresses T1, PTEN protein labeled with QSY 35. This is another data set of the same source.
Experiment [3] has the same target. The source holds these as a separate data set.

T1 sequence (P60484 whole entry): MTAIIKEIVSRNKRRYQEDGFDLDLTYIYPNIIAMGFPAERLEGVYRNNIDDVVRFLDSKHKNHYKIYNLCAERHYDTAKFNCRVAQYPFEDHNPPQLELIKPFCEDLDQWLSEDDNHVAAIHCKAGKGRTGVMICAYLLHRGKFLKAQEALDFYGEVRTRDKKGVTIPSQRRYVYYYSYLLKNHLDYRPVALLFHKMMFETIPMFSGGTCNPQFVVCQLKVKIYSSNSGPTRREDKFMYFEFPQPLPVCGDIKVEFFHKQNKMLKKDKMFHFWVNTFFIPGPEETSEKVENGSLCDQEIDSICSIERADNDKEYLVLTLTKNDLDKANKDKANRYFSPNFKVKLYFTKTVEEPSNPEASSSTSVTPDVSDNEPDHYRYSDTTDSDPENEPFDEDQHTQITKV

B1: Prdx1 protein labeled with Alexa Fluor 546 (enzyme, UniProt Q06830 1-199, looked up)
chain: MSSGNAKIGHPAPNFKATAVMPDGQFKDISLSDYKGKYVVFFFYPLDFTFVCPTEIIAFSDRAEEFKKLNCQVIGASVDSHFCHLAWVNTPKKQGGLGPMNIPLVSDPKRTIAQDYGVLKADEGISFRGLFIIDDKGILRQITVNDLPVGRSVDETLRLVQAFQFTDKHGEVCPAGWKPGSDTIKPDVQKSKEYFSKQK
modifications: Alexa Fluor 546 on primary amines (succinimidylester of Alexa Fluor 546 carboxylic acid)
B1: the results for the Kd in experiment [1], in experiment [2] and in experiment [3] were 220 ± 22.5 nM, 247 nM and 215 ± 19.5 nM, respectively.

Broadly, the Kd is a measure of binding affinity in units of concentration.

Source of the values: article PMC3936261 (Oncogene, 2013).
